From patent US20100311955A1 (SHANHAI GUOJIAN BIO TECH INSTITUTE, published 2010) come the findings set out here.

For test [1], the target named is human CD34 (antigen on human myeloid leukemia cell KG-1a) (human) (UniProt P28906). The experiment in a line: flow cytometry competition on KG-1a cells, competitor FITC-My10; single test.
For test [2] the target is unchanged. The experiment in a line: flow cytometry competition on KG-1a cells, competitor FITC-My10; mean of 3 tests.
In test [3] the target is T1, human CD34 (antigen on human myeloid leukemia cell KG-1a) (human, UniProt P28906 32-385).
T1 construct: whole, on cells; Target in all assays is CD34 on KG-1a cells, which highly express it; also called antigen CD34
T1 sequence (looked up): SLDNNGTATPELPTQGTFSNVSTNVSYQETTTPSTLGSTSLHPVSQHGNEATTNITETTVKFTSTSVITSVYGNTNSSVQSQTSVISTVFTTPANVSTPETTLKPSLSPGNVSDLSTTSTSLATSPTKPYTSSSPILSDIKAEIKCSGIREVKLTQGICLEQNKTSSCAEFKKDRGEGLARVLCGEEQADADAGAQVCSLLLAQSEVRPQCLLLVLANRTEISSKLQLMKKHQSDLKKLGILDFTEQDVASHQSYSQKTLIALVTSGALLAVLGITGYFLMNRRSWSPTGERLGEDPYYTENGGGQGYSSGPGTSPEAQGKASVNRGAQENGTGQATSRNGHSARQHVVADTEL
In words: flow cytometry competition on KG-1a cells, competitor FITC-4C8. The procedure:
A fixed subsaturating concentration of fluorescently labeled antibody FITC-4C8 and serial dilution of unlabeled purified antibodies were mixed respectively and then added into target KG-1a cells (1×10⁶/ml), and incubated at 4° C. for 60 min, the cells were washed twice with 1% FCS-PBS and examined by FCM using Cellquest software for analysis. Humanized anti-CD3 monoclonal antibody hu12F6 (preparation see to Li B H, Wang H, Dai J X, Ji J J, Qian W Z, Zhang D P, Hou S, Guo Y J. Construction and characterization of a humanized anti-human CD3 monoclonal antibody 12F6 with effective immunoregulation functions. Immunology 2005, 116(4):487-98) was used as control. Triplicate tubes were set for each concentration of the competitive antibody. The IC₅₀ values were calculated, with the maximum fluorescence intensity indicating the average fluorescence intensity obtained in the absence of competitive antibody.
(Flow cytometry measures light scatter and fluorescence of single cells or particles in a stream.)

Test [4] concerns the target T1, human CD34 (antigen on human myeloid …). The experiment in a line: flow cytometry competition on KG-1a cells, competitor FITC-My10; mean of 3 tests. The procedure: (§1) Immunology. 2005, 116(4):487-98) was used as control. Triplicate tubes were set for each concentration of the competitive antibody. The IC₅₀ values were calculated, with the maximum fluorescence intensity indicating the average fluorescence intensity obtained in the absence of competitive antibody. Repeating this test for 3 times, and gaining statistical the result, see to Table 2.

The target is the same in test [5]. The experiment in a line: flow cytometry competition on KG-1a cells, competitor FITC-My10; single test. The procedure:
as §1

Several values for one entry are separate records, joined by “and”; a condition that tells them apart may be missing. Equal entries are not always repeated.

“murine-derived monoclonal antibody My10 (anti-CD34)”: the IC50 (in general, the concentration that inhibits the measured activity by half) in test [1] is 8.67 µg/mL and 9.23 µg/mL and 8.18 µg/mL; in test [2], 8.69 µg/mL.

B1: humanized antibody h4C8 (h4C8Hb/h4C8Lb) (antibody, human IgG1, V domains shown)
VH: QIQLVQSGSELKKPGASVKVSCKASGYTFTNYGMNWVRQAPGQGLKWMGWINTNTGEPKYAEEFKGRFALSLDTSVSTAYLQINSLKAEDTAVYFCARGYGNYARGAWLAYWGQGTLVTVSS
VL: DVLLTQSPLSLPVTLGQPASISCRSSQTIVHSNGNTYLEWFQQRPGQSPRLLIYQVSNRFSGVPDRFSGSGSGTDFTLKISRVEAEDVGVYYCFQGSHVPRTFGGGTKVEIKR
notes: CDR-grafted antibody with nine murine framework residues kept; also called humanized anti-CD34 antibody; hu4C8
As to B1, the half-maximal inhibitory concentration (IC50) in test [3] was 1.76 µg/mL; in test [4] it was 1.09 µg/mL; in test [5], 1.11 µg/mL and 1.14 µg/mL and 1.02 µg/mL.

B2: chimeric antibody c4C8 (antibody, human IgG1, kappa, V domains shown)
VH: QIQLVQSGPELKKPGETVNISCKASGYTFTNYGMNWVKQAPGKGLKWMGWINTNTGEPKYAEEFKGRFALSLETSASTAYLQINNLKNEDTATYFCARGYGNYARGAWLAYWGQGTLVTVSA
VL: DVLLTQTPLSLPVSLGDQASISCRSSQTIVHSNGNTYLEWFLQKPGQSPKLLIYQVSNRFSGVPDRFSGSGSGTDFTLKISRVEAEDLGVYYCFQGSHVPRTFGGGTKLEIKR
notes: also called 4C8 chimeric antibody
Consider B2, for which, in test [3], the concentration for half-maximal inhibition (IC50) amounted to 1.69 µg/mL.

B3: anti-human CD34 monoclonal antibody 4C8 (antibody, V domains shown)
VH: QIQLVQSGPELKKPGETVNISCKASGYTFTNYGMNWVKQAPGKGLKWMGWINTNTGEPKYAEEFKGRFALSLETSASTAYLQINNLKNEDTATYFCARGYGNYARGAWLAYWGQGTLVTVSA
VL: DVLLTQTPLSLPVSLGDQASISCRSSQTIVHSNGNTYLEWFLQKPGQSPKLLIYQVSNRFSGVPDRFSGSGSGTDFTLKISRVEAEDLGVYYCFQGSHVPRTFGGGTKLEIKR
notes: Mouse hybridoma antibody purified on Protein G; also called murine-derived monoclonal antibody 4C8; FITC-4C8
In turn, B3 registered an IC50 in test [3] of 1.72 µg/mL.
